Residue numbers refer to the chain shown, from its start.

The chains are these.
B1: 单克隆抗体6C8 (antibody, V domains shown)
VH: EVQLQQSGPELVRPGASVRISCKASGYSFTGYYMHWVKQSHVKSLEWIGRINPHNGVPNYNQNFKDKATLTVDKSSTTAYMELHSLTSEDSAVYFCVSGSSDFDYWGRGATLTVS
VL: DIQMTQSPSSLSASLGERVTLTCRASQEIGAFLGWLQQKPDGIIKRLIYAASVLDSGVPKRFSGSRSGSDYSLTISSLESEDFADYYCLQYVSFPRTFGGGTKLEIK
B2: 单克隆抗体2B5 (antibody, V domains shown)
VH: EVHLQQSGPELVKPGSSVKISCKASGYSFTGYYIHWVKQNHLKSLTWVGRINPHNGVADYDQILRGRAALTVDKSSTTAYLEFHSLTYEDSAVYFCVSGSNDFDYWGQGTPLTVS
VL: B1 VL with T20S, G30R, A31S, I43T, A51V, V53N, V92I
B3: 单克隆抗体4D6 (antibody, V domains shown)
VH: EVQLQQSGPELVKPGASVKISCKASGYSFTGYYMHWVKQSHEKSLEWVGRINPHNGVADYNQILKGKAALTVDKSSTTAYMEFHSLTSEDSAVYYCVSGSSDFDYWGQGTPLTVS
VL: B1 VL with T20S, G30R, A31S, I43T, A51V, V53N, V92I

The assay addresses 柯萨奇A6型病毒(CVA6)病毒颗粒抗原, 毒株TW-2007-00141 (Coxsackievirus A6 (CVA6), strain TW-2007-00141). The assay is described as follows: cell-based or functional assay.
Regarding B1, the 中和效价 (最大稀释倍数 (可以抑制50%以上细胞孔病变)) was found to be 4096.

As for B2, the 中和效价 (最大稀释倍数 (可以抑制50%以上细胞孔病变)) is 4096.

Consider B3, for which the 中和效价 (最大稀释倍数 (可以抑制50%以上细胞孔病变)) turned out to be 8192.

For the origin of these results see patent CN113549147A.
